Results published in IntAct's records for PubMed 34063696.

B1: BolA-like protein 3 (Homo sapiens), Q53S33 (parent)
chain: MAAWSPAAAAPLLRGIRGLPLHHRMFATQTEGELRVTQILKEKFPRATAIKVTDISGGCGAMYEIKIESEEFKEKRTVQQHQMVNQALKEEIKEMHGLRIFTSVPKR
partner: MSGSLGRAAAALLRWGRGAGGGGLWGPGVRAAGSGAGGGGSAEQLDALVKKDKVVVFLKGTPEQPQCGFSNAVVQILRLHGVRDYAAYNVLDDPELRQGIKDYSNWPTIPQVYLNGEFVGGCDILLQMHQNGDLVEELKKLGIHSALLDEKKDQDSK

Variants of: B1
Settings: with glrx5_human GLRX5, Q86SX6

effect of a mutation on the interaction	Variant
with no effect	MAAWSPAAAAPLLRGIRGLPLHHRMFATQTEGELRVTQILKEKFPRATAIKVTDISGGYGAMYEIKIESEEFKEKRTVQQHQMVNQALKEEIKEMHGLRIFTSVPKR [C59Y]
